Test [1] concerns the target HLA-DR1 (HLA-DRα*0101 and HLA-DRβ1*0101) (human). Briefly: ELISA; competitive peptide-binding assay: test peptide 10^-4-10^-10 M against 4.5 nM biotinylated CLIP 99-117 marker peptide for 0.1 μg refolded HLA-DR1-CLIP 105-117; 20 mM MES, 140 mM NaCl, 0.02% NaN3, pH 5, overnight at 37 °C; HLA-DR1 captured on anti-DR L243, bound marker detected with streptavidin-HRP; % competitive inhibition, four-parameter fit. (In general: ELISA stands for enzyme-linked immunosorbent assay.)

The target is the same in test [2]. Briefly: ELISA.
In test [3] the target is HLA-DR1 (HLA-DRα*0101 and HLA-DRβ1*0101). Briefly: in vitro competition assay (HLA-DR1 peptide binding).

With “5T4_(11–30) peptide (from UniProt Q13641 11-30)”, the half-maximal inhibitory concentration (IC50) (in general, the concentration that gives 50% inhibition) in test [1] stood at 535 nM.

As for “IAV hemagglutinin_(306–319) epitope (peptide)”, in test [2], the IC50 was 13 nM. As for 5T4_(111–130) 20-mer peptide E3A, in test [3], the IC50 turned out to be 149 nM.

For the origin of these results see paper PMC6937582, “Human leukocyte antigen (HLA) class II peptide flanking residues tune the immunogenicity of a human tumor-derived epitope” (The Journal of Biological Chemistry, 2019).
